Holding throughout (assay): cell-based or functional assay
Test [1] deals with human PERV-A receptor PHuR-A2 (human) (UniProt Q9NWF4).
For test [2], the target named is human PERV-A receptor PHuR-A1 (human) (UniProt Q9HAB3).
Test [3] addresses baboon PERV-A receptor PBaR-A1 (baboon) (UniProt Q863Y8).
Chain of UniProt Q863Y8 (Q863Y8 whole entry): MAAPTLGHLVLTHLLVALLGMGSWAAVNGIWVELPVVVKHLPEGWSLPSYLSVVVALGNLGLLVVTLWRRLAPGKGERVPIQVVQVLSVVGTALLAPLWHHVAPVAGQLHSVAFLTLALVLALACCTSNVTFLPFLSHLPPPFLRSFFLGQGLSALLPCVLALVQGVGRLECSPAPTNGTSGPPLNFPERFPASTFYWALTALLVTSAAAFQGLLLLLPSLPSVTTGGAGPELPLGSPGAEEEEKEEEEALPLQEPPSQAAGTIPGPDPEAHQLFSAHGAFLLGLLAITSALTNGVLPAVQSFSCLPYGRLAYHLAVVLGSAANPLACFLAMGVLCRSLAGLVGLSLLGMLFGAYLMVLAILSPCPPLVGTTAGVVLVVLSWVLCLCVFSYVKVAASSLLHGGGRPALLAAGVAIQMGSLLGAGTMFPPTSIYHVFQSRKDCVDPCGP

Chain of UniProt Q9HAB3 (Q9HAB3 whole entry G341S): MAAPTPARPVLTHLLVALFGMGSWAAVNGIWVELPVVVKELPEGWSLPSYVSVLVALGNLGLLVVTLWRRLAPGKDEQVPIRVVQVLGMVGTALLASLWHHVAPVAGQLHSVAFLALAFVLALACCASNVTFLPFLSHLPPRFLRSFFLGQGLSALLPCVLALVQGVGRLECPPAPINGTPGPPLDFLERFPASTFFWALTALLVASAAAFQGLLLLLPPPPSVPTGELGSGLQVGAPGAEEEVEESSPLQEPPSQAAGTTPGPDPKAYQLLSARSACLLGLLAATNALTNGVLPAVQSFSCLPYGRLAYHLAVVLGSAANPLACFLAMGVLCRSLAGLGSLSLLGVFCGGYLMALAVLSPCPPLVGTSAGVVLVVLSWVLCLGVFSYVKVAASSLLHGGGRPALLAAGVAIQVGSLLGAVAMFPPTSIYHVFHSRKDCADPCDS
Chain of UniProt Q9NWF4 (Q9NWF4 whole entry Q70R/V296M): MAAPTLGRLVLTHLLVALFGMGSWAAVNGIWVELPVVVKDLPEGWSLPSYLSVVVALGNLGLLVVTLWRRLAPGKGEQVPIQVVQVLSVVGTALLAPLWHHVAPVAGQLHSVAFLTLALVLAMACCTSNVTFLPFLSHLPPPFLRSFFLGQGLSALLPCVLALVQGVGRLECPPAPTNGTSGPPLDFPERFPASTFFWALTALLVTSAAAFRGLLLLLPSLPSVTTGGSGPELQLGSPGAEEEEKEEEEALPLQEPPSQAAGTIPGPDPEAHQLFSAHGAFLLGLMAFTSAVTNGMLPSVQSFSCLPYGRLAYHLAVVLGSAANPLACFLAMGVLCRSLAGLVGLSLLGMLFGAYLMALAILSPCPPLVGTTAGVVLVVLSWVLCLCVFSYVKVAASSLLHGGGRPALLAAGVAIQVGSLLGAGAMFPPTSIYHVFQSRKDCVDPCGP

“PERV-A 14/220 envelope (ENV) protein, carried on replication competent recombinant PERV-A/PERV-C virus particles”: the Approximate LacZ pseudotype titer IU/ml is 20000 IU/ml in test [1], 4000 IU/ml in test [2] and 6000 IU/ml in test [3].

Take “TelCeB PERV-A18 LacZ pseudotype (PERV-A envelope)”: the Approximate LacZ pseudotype titer IU/ml in test [1] was 1000 IU/ml; in test [2], 6 IU/ml.

The values above are taken from patent US20030175904A1.
